Legend:
PBP1B K355A = biological target: T1, PBP1B K355A (E. coli, UniProt P02919 46-844, K355A); test: cell-based or functional assay
T1 sequence (looked up): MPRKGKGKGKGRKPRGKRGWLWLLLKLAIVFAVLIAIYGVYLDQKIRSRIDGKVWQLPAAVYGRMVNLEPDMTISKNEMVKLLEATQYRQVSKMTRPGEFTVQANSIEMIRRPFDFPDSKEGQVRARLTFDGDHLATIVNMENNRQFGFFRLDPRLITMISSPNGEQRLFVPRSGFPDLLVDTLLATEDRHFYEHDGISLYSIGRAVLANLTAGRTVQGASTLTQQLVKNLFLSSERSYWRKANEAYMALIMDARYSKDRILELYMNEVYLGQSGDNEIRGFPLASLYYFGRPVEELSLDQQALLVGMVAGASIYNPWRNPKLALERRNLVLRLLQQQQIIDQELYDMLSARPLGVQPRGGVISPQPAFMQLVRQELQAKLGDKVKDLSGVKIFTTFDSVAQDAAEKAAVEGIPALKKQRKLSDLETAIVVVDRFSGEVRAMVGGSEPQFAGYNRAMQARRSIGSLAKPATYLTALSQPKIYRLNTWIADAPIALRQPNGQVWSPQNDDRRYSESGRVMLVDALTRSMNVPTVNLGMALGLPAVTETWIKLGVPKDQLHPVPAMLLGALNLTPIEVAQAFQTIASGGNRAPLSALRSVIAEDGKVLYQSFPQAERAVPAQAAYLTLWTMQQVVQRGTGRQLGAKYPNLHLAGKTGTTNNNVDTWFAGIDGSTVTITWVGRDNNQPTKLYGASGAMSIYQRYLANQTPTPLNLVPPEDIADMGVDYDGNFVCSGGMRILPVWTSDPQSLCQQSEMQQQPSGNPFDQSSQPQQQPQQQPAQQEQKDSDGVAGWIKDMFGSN

PBP1B Q318A = biological target: T2, PBP1B Q318A (E. coli, UniProt P02919 46-844, Q318A); test: cell-based or functional assay
T2 sequence (looked up): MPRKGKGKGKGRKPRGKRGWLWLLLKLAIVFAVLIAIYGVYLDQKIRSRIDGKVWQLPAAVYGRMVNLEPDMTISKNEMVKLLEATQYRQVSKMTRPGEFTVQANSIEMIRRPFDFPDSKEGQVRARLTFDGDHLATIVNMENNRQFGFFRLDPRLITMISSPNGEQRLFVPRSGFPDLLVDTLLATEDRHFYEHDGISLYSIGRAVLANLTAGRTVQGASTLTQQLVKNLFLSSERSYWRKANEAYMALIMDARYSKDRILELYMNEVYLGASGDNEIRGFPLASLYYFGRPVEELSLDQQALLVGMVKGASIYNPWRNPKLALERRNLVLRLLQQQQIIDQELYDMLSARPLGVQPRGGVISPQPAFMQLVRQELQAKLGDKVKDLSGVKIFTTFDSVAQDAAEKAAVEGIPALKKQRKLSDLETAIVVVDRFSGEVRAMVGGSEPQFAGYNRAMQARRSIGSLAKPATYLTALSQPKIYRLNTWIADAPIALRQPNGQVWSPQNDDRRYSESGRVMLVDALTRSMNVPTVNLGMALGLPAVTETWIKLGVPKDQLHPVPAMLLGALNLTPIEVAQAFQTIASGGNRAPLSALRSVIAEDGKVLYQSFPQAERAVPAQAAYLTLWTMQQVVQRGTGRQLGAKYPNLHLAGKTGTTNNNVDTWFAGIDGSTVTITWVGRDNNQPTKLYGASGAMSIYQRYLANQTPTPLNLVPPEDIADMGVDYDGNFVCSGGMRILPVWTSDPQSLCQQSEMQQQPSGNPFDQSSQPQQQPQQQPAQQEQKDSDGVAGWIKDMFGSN

PBP1B^Δ158–160 = biological target: T3, PBP1B^Δ158–160 (E. coli, UniProt P02919 46-844, Δ158–160); test: SPR; reducing conditions: 2 mM TCEP in the SPR running buffer, immobilised PBP1B versions incubated in it for 30 min before the assay; LpoB injected from 19.5 nM to 10 μM; apparent KD; conditions: both partners purified
T3 construct: PBP1B, E. coli, residues 46-844 with residues 158-160 of Loop 1 removed, made by mutagenesis of pDML924; also called Loop 1 truncation; source: E. coli BL21(DE3), purified (membrane extract, HisTrap, thrombin, HiTrap SP ion exchange)
T3 sequence (looked up): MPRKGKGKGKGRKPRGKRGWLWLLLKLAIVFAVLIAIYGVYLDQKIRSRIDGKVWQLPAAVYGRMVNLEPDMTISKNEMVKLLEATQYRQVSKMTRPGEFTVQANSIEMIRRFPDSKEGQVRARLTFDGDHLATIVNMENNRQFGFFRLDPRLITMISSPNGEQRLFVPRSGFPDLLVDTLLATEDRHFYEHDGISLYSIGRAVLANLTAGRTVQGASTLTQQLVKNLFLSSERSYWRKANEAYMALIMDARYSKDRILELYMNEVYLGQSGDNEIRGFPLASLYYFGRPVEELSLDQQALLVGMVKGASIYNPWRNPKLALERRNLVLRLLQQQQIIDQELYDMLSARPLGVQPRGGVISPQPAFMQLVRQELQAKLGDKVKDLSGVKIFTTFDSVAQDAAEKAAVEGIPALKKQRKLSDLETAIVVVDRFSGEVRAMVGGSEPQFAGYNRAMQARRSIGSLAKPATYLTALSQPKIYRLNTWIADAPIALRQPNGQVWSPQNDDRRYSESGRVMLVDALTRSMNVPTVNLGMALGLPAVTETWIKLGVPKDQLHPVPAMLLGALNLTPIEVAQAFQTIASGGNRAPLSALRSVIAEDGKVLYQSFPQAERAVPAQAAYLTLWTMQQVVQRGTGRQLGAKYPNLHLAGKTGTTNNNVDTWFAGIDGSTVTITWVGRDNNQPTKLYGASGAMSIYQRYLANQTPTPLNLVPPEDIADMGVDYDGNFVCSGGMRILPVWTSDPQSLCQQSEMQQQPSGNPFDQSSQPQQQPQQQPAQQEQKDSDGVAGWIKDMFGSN

- fold activation of the GTase rate of PBP1B K355A by LpoB (PBP1B K355A): ~37 fold
- fold activation of the GTase rate of PBP1B Q318A by LpoB (PBP1B Q318A): ~25 fold
- Kd (PBP1B^Δ158–160): 1700 nM
B1: LpoB (natural protein, E. coli)
chain: VGQREPAPVEEVKPAPEQPAEPQQPVPTVPSVPTIPQQPGPIEHEDQTAPPAPHIRHYDWNGAMQPMVSKMLGADGVTAGSVLLVDSVNNRTNGSLNAAEATETLRNALANNGKFTLVSAQQLSMAKQQLGLSPQDSLGTRSKAIGIARNVGAHYVLYSSASGNVNAPTLQMQLMLVQTGEIIWSGKGAVSQQ
notes: LpoB, E. coli; also called lipoprotein LpoB; source: E. coli BL21(DE3), purified (HisTrap, Superdex 200), as in Egan et al. 2014
